Experimental findings from publication PMC9047069, “Multifaceted Activities of Seven Nanobodies against Complement C4b” (The Journal of Immunology Author Choice, 2022) are described below.

The target of test [1] is T1, human complement C4b (human, UniProt P0C0L4, biotin (EZ link Maleimide-PEG2-Biotin) coupled to its thiol group, only where C4b was held on the SPR chip).
T1 construct: beta chain (75 kDa) of human complement C4; alpha' chain (87 kDa) of human C4b, the alpha chain of C4 after removal of C4a; gamma chain (33 kDa) of human complement C4; One molecule for unlabelled C4b (SEC, cryo-EM, analyte in SPR), C4b biotinylated at the thiol (ligand in SPR) and C4b deposited on erythrocytes from serum; The CTC domain is not in the deposited models; source: bought: Complement …
T1 sequence (P0C0L4 20-675, chain 1 of 3): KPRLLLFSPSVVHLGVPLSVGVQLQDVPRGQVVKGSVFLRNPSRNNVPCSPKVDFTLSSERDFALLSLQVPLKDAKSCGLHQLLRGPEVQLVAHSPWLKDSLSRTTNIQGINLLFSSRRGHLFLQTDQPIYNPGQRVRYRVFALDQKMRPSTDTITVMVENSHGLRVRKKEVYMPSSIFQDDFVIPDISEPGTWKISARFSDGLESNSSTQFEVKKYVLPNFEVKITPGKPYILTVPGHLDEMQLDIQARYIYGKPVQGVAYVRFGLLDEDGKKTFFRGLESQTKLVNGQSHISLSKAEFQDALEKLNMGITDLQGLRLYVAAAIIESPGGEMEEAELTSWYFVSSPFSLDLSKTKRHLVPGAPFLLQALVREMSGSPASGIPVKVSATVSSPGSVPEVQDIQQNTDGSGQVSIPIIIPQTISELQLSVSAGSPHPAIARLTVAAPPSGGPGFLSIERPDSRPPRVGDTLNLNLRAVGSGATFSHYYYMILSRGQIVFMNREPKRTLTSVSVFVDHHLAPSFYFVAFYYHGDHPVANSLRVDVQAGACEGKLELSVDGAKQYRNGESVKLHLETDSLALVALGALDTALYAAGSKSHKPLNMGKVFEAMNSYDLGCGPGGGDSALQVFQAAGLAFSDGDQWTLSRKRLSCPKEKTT
T1 sequence (P0C0L4 757-1446, chain 2 of 3): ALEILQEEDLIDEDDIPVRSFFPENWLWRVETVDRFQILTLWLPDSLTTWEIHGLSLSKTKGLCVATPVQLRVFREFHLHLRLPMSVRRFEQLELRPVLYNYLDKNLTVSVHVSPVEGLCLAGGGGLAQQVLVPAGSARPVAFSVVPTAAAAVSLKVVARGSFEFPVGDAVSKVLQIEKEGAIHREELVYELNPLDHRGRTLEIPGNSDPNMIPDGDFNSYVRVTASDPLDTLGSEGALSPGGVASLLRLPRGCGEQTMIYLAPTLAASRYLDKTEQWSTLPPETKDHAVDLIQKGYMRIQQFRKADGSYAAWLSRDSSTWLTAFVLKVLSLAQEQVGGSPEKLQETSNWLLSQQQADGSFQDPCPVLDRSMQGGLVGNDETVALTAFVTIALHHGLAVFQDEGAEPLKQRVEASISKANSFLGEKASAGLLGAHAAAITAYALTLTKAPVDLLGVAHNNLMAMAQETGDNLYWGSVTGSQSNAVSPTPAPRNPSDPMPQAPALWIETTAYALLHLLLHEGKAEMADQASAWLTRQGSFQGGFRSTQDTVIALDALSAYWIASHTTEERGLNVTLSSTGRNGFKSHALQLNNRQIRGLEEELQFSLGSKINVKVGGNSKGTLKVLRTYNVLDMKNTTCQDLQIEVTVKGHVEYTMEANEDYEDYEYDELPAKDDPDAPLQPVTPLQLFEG
T1 sequence (P0C0L4 1454-1744, chain 3 of 3): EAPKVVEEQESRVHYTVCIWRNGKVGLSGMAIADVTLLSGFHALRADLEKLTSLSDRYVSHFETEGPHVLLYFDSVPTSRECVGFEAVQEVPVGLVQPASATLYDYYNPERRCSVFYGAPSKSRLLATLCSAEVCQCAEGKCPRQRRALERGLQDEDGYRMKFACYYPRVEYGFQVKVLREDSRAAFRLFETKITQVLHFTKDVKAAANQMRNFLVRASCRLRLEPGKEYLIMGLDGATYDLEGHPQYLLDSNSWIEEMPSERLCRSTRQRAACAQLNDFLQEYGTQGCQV
Briefly: SPR; biotinylated nanobodies (100 nM) spotted on a streptavidin chip; kinetic titration with C4b as analyte, five-step twofold dilution without regeneration, last dissociation 1 h; 20 mM HEPES pH 7.4, 150 mM NaCl, 3 mM MgCl2; NbE11 and NbH11 fitted with mass transport; duplicate. The following applies: both partners purified.

Test [2] concerns the target T1, human complement C4b. As to the kind of experiment: SPR; biotinylated C4b (50 nM) spotted on a planar streptavidin chip through its thiol group; nanobodies injected in a 14-step twofold dilution series; IBIS-MX96; 20 mM HEPES pH 7.4, 150 mM NaCl, 3 mM MgCl2; simple bimolecular model, NbE3 with mass transport; duplicate. The conditions noted are these: both partners purified. For orientation: In SPR one partner is held on a chip, and binding of the other changes the refractive index at the surface.

B1: NbB5 (VHH)
VHH: EVQLVESGGGLVQPGGSLRLSCAASGFTFSSYHMSWVRQAPGKGLEWISVINDSGDLTRYADSVKGRFTISRDNAKNTLYLQMNSLQPEDTAVYSCLKSSDFYSYSNADSRGQGTQVTVSS
notes: Vector: modified pHEN6 with thrombin cleavage site and 6xHis, N-terminal pelB leader for periplasmic secretion; no cleavage of the tag is told; source: E. coli BL21 Codon Plus (DE3)-RIL, periplasm, purified (Ni-NTA, SEC)
Regarding B1, in the test with human complement C4b [1], the Kd (in general, the free concentration of one partner at which half of the binding sites on the other are occupied at equilibrium, for simple one-to-one binding) stood at 67 ± 6 pM and the off-rate constant (koff) (in general, a measure of how fast the partners let go of each other) amounted to 1.3e-05 s⁻¹.

B2: NbE3 (VHH)
VHH: EVQLVESGGGLVQAGGSLRLSCAASGSDFSANAVGWYRQAPGKQRVVVASISSTGNTKYSNSVKGRFTISRDNAKNTVYLQMNSLKPEDTAVYYCWLFRFGIENYWGQGTQVTVSS
notes: Vector: modified pHEN6 with thrombin cleavage site and 6xHis, N-terminal pelB leader; no cleavage of the tag is told; also called NbBE3; source: E. coli BL21 Codon Plus (DE3)-RIL, periplasm, purified (Ni-NTA, SEC)
In the test with human complement C4b [2], B2 came in with a Kd of 318 ± 10 pM and a koff of 0.0066 s⁻¹.

B3: NbB12 (VHH)
VHH: EVQLVESGGGLVQAGGSLRLSCVASERTYMAWFRQAPGKEREFVAAITSSGMMTEYAPSVKGRFTISRDNAKNTVYLQMNSLKPEDTAVYYCAADLRQRFGERVTEYDYWGQGTQVTVSS
notes: Vector: modified pHEN6 with thrombin cleavage site and 6xHis, N-terminal pelB leader; no cleavage of the tag is told; also called NbB12-AF488; source: E. coli BL21 Codon Plus (DE3)-RIL, periplasm, purified (Ni-NTA, SEC)
In the test with human complement C4b [1], B3 yielded an equilibrium dissociation constant (Kd) of 14 ± 4 pM and a koff of 3.8e-06 s⁻¹.
